16 molecules from US20180346555A1 (Regeneron, published 2018) can be followed below.

B1: H4H17033P (antibody, human IgG4, V domains shown)
VH: QVQLVQSGAEVKKPGASVKVSCKASGYTFAAHYMHWVRQAPGQGLEWMGWINTYTGGTNYGQKFQGRVTMTRDTSITTAYMELSRLRSDDTAVYYCARDRRNWNFVFEYWGQGTLVTVSS
VL: DIQMTQSPSSLSASVGDRVTISCRASQNIKNYLNWYQQKPGKAPKLLIYEASNLQSGAPSRFSGSGSGTDFTLTISSLEPEDFATYYCQQSFSIPWTFGQGTKVEIK
B2: H4H17067P2 (antibody, human IgG4, V domains shown)
VH: EVQLVQSGAEVKKPGESLKISCSGSGYRFTNYWIAWVRQMPGKGLEWMGLIHPDDSDIRYSPSFQGQVTFSVDKSINTAYLQWSSLKASDTAMYYCTRQDGILWSHNAWFDPWGQGTLVTVSS
VL: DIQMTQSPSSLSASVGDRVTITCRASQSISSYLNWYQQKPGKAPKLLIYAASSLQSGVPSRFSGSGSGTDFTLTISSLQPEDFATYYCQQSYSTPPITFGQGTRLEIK
B3: H4H17045P2 (antibody, human IgG4, V domains shown)
VH: EVQLVESGGGLVQPGVSLRLSCVASGFTFSNYDITWIRQIPGKGLEWVSRISGSGGSTYFADSVKGRFIISRDNSKNTVYMQMNSLRAEDSAVYYCARRDSVLFSMNSWLDPWGQGTLVTVSS
VL: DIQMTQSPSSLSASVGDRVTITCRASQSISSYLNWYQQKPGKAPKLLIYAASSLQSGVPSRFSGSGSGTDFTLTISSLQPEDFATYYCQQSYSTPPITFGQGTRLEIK
B4: H4H17028P (antibody, human IgG4, V domains shown)
VH: QVQLVESGGGVVQPGRSLRLSCAASGFTFSRYAIHWVRQAPGKGLEWVAVISYDGDDKYYGDSVKGRFTISRDNSKTMVYLHMNSLRTEDTAVYYCAKDGYSLYGKDYFDYWGQGTLVTVSS
VL: EIVLTQSPGTLPLSPGERATLSCRASQSITNSYLAWYQQKPDQAPRLLIYGASSRATGIPDRFSGSESGTDFTLTISRLEPEDFAVYYCQQYVRSPWTFGQGTKVEIK
B5: H4H16987P (antibody, human IgG4 S228P, kappa, V domains shown)
VH: EVQLVESGGGLVQPGGSLRLSCAASGFTVSSNSMSWVRQAPGEGLEWVSVIFSGGITYYSDSVKGRFTISRHNSKNTLYLQMNSLRTEDTAVYYCARHSNWNFDAFDIWGQGTMVTVSS
VL: DIQMTQSPSSLSASVGDRVTITCRASQSFDTYLNWYQQKPGKAPNLLIYATSSLQSGVPSRFSGSGSGTDFTLTISSLQPEDFGTYYCQQSYSIPYTFGQGTKLEIKR
notes: human IgG4 Fc; also called MAB4
B6: H4H16946P (antibody, human IgG4, V domains shown)
VH: EVQLVESGGGLVQPGGSLRLSCVASGFTFSNYDMNWVRQAPGEGLEWISYISYSDHNIYYIDSVKGRFTISRDNAKNSLYLQMNSLRAEDTAIYYCAREALASSSFDYWGQGTLVTVSS
VL: EIVMTQSPATLSVSPGERVTLSCRASQSVSGNLAWYQQKPGQAPRLLIYSASTGATGVPARFSGSGSGTEFTLTISSLQSEDFALYYCQQYNKWPRTIGQGTKVEIK
notes: Fully human antibody with human IgG4 Fc (H4H prefix)
B7: H4H16960P (antibody, human IgG4, V domains shown)
VH: QLQLQESGPGLVRPSETLSLTCTVSGGSISSSNYWWGWIRQPPGKGLEWIGSIYYSGITYYNPSLKSRVTISADTSKDQFSLKLRSVTAADTAVYYCAKLEWLRLDFWGQGTTVTVSS
VL: DIQMTQSPSSVSASVGDRVTITCRASQGISSWLVWYQQKPGKVPKLLIYAASSLQSGVPLRFSGSGSGTDFTLTISSLQPEDFATYYCQQAKSFPLTFGQGTRLEIK
notes: as for B6
B8: H4H16943P (antibody, human IgG4, V domains shown)
VH: EVQLVESGGGLVQPGGSLRLSCTASGFMSSMYWMSWVRQAPGKGLEWVSNIKQDGTEKNYVESVKGRFTISRDNAKNSLYLQINSLRGEDTAVYYCARDLYSSSSGYYYYGLDVWGQGTTVTVSS
VL: DIVMTQSPLSLPVTPGEPASISCRSSQSLLHSNKYNYLDWYLQKPGQSPQLLIYLSSNRASGVPDRFSGSGSGTEFTLKISRVEAEDVGIYYCMQALHTPLTFGGGTKVEIK
notes: as for B6
B9: H4H17001P (antibody, human IgG4, V domains shown)
VH: QVQLVESGGGLVKPGGSLRLSCAASGFTFSDYYMNWIRQAPGKGLEWISLISSSGSAIYYSDSVKGRFTISRDNARKSLYLQVNSLRAEDTAVYYCARDRGEWALGAYYYGLDVWGQGTTVTVSS
VL: DIVMTQSPLSLPVTPGEPASISCRSSQSLLHSDGYNYLDWYLQKSGQSPQLLIYLGSNRASGVPDRFSGSGSGTDFTLKISRMEAEDVGVYYCMQALQTPYTFGQGTKLEIK
notes: as for B6
B10: H4H16971P (antibody, human IgG4, V domains shown)
VH: QVQLVESGGGVVQPGRSLRLSCAASGFTFSSYGLHWVRQAPGKGLEWVAVISDDGSYKFYADSMKGRFTISRDNSKNTLYLQMNSLRAEDTAVYYCAKDRGRSGWYYFDYWGQGTLVTVSS
VL: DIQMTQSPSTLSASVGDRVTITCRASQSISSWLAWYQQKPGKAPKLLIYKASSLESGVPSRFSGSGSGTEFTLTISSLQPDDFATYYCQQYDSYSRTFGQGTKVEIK
notes: as for B6
B11: H4H16967P (antibody, human IgG4, V domains shown)
VH: QVQLVESGGGVVQPGRSLRLSCAASGFTFSSYGMHWFRQAPGKGLEWVGVIWSDGSDKKYADSVKGRFTISRDNSKNTLYLLMNSLRDDDTAVYHCAREGGFLYSSSSHFDYWGQGTLVTVSS
VL: AIQMTQSPSSLSASVGDRVTITCRTSQGIRNDLGWYQQKPGKAPKLLIFAASSLQSGVPSRFSGSGSGTDFTLTISSLQPEDFAIYYCLQDYKYPFTFGGGTKVEIK
notes: as for B6
B12: H4H17015P (antibody, human IgG4, V domains shown)
VH: QVQLQESGPGLVKPSQTLSLTCTVSGGSISSADHYWSWIRQQPGKGLEWIGYISYRGTTYYNPTLESRVSISVDTFKNQFSLMLHSVTVADTAVYYCAKVLQGLVRFRDYGFDVWGQGTTVTVSS
VL: DIQLTQSPPFLSASVGDRVTITCWASQDISSYLAWYQQNPGKSPKLLIYDAFTLHTGVPSRFSGSGSGTEFTLTISSLQPEDFATFYCQHLYSFPFTFGPGTKVDIK
notes: as for B6
B13: H4H16950P (antibody, human IgG4, V domains shown)
VH: QVQLVQSGAEVKKPGASVKVSCKTSGYTFTNYGITWVRQAPGQGLEWMGWISAYNGNTNYAQNVQGRVTMTTDTSTSTAYMEVRSLRSDDTAVYYCARRSSMLHFQHWGQGTLVTVSS
VL: DIVMTQSPDSLAVSLGERATINCKSSQHVLYDSSNENYLAWFQQKPGQPPKLLIYWASTRESGVPDRFSGSGSGTDFTLTISSLQAEDVAVYYCQQYSSAPYTFGQGTKLEIK
notes: as for B6
B14: H4H16991P (antibody, human IgG4, V domains shown)
VH: QVQLVQSGAEVRKPGASVKVSCKASGYTFTGYYLHWVRQAPGQGLEWMGLINPNTGGTNFAQKFQGRVTMTRDSSISAAYMELSRLRSDDTAVYYCARQHWNRYFDNWGQGTLVTVSS
VL: DIQMTQSPSTLSASVGDRVTITCRASQSVGNWLAWYQQKPGKAPKLLIQEASSIESGVPSRFSGSGSGTEFTLIVSSLQPDDFATYYCQQYNSYSWTFGHGTKVEIK
notes: as for B6
B15: H4H16979P (antibody, human IgG4, V domains shown)
VH: QVQLVQSGAEVKKPGASVKVSCKASGYTFIAYYLHWVRQAPGQGLEWMGLLNPYTGGSYYTQKFQGRVTMTRDTSIDTAYMELNSLRSDDTAIYYCARDKRSYYIPYAFEIWGQGTMVTVSS
VL: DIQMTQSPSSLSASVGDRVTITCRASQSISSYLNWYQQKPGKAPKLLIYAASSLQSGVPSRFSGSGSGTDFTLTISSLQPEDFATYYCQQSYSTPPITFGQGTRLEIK
notes: as for B6
B16: H4H16992P (antibody, human IgG4 S228P, kappa, V domains shown)
VH: QVQLQESGPGLVKPSETLSLTCSVSGGSITNYFWTWIRQSPGKGLEWIGYIYYSGGTNYNPSLKSRVTISIDTSKNQFSLNMNSVTAADTAVYYCAGSYYYGVDVWGQGTTVTVSS
VL: EIVLTQSPATLSLSPGERATLSCRASQSIKSFLAWYRQKPGQAPRLLIYDASNRPTGIPARFSGSGSGTDFTLTINSLESEDFAVYFCQQRNNWPFTFGPGTKVDIKR
notes: human IgG4 Fc; also called REGN5713; MAB1

The first experiment has as its target T1, natural Bet v 1 (Betula verrucosa (Betula pendula), UniProt P15494 2-160).
T1 construct: Bought natural protein; also called nBet v 1
T1 chain: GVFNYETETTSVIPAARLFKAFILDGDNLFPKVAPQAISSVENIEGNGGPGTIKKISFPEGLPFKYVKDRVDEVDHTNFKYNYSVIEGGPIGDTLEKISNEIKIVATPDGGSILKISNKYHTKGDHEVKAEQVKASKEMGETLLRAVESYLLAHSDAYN
Nature of the experiment: SPR Biacore 4000, mAb captured on anti-human Fc, 25C.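 Note: purified anti-Bet v 1 mAbs probed with natural Bet v 1 in HBS-ET buffer (HEPES, NaCl, EDTA, Tween-20) at pH 7.4.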
Turning to B1, the “100 nM natural Bet v 1 Bound (RU)” value is 61 RU, the Kd came to 1.19 nM, the off-rate constant (koff) was 0.000469 s⁻¹ and the kon was determined as 394000 M⁻¹ s⁻¹. The t½ was 25 min.
Consider B2, for which the “100 nM natural Bet v 1 Bound (RU)” value is 58 RU, binding was characterised by a dissociation constant (Kd) of 3.56 nM, the koff is 0.000402 s⁻¹ and the on-rate (kon) stood at 113000 M⁻¹ s⁻¹. The same molecule gave a t½ of 29 min.
The corresponding values for B3 are 69 RU, 1.22 nM, 0.000149 s⁻¹, 122000 M⁻¹ s⁻¹ and 78 min.
Take B4: the “100 nM natural Bet v 1 Bound (RU)” value amounted to 63 RU, binding was put at a Kd of 3.79 nM, the koff worked out at 0.00107 s⁻¹ and the association rate constant (kon) turned out to be 281000 M⁻¹ s⁻¹. Also, the t½ is 11 min.

For the next experiment, the target named is T1, natural Bet v 1. Nature of the experiment: SPR Biacore 4000, mAb captured on anti-human Fc, 37C.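 Note: kinetic rate constants from SPR sensorgrams fitted to a 1:1 model with mass transport limitation, HBS-ET buffer pH 7.4, KD and t½ derived from the rate constants.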
For B1, the “100 nM natural Bet v 1 Bound (RU)” value came out at 74 RU, binding was put at a Kd of 1.9 nM, the koff was determined as 0.00119 s⁻¹ and the on-rate constant (kon) is 627000 M⁻¹ s⁻¹. The molecule further came in with a t½ of 10 min.
Taken in the same sequence, the figures for B2 were 80 RU, 5.48 nM, 0.00147 s⁻¹, 268000 M⁻¹ s⁻¹ and 7.9 min.
The corresponding values for B3 are 90 RU, 1.86 nM, 0.000441 s⁻¹, 237000 M⁻¹ s⁻¹ and 26 min.
The corresponding values for B4 are 71 RU, 7.77 nM, 0.0029 s⁻¹, 373000 M⁻¹ s⁻¹ and 3.9 min.

A further experiment has as its target T2, Hazel (Cor A 1, MyBiosource, Cat# MBS5304600) (Hazel, UniProt Q08407 2-160, limits assumed).
T2 construct: Bought reagent
T2 sequence (looked up): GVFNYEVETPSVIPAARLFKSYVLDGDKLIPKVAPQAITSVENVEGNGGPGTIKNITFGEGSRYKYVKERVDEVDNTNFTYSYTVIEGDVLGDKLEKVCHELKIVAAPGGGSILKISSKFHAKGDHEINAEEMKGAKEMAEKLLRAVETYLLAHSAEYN
Nature of the experiment: SPR Biacore 4000, mAb captured by anti-human Fc, 25 C.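 Note: allergen analyte binding to captured, purified anti-Bet v 1 monoclonal antibodies, SPR in HEPES-buffered saline running buffer with EDTA and Tween-20 at pH 7.4.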
In the case of B5, the “100 nM Analyte Bound (RU)” value worked out at 0 RU and the binding result is on record as “no binding (tested: 100 nM)”.
As to B6, the “100 nM Analyte Bound (RU)” value was -1 RU.
In the case of B7, the “100 nM Analyte Bound (RU)” value came out at 0 RU and the binding result was “no binding (tested: 100 nM)”.
Take B8: the “100 nM Analyte Bound (RU)” value turned out to be 0 RU and the binding result is “no binding (tested: 100 nM)”.
The corresponding values for B9 are 0 RU and “no binding (tested: 100 nM)”.
Taken in the same sequence, the figures for B10 were 0 RU and “no binding (tested: 100 nM)”.
As to B11, the “100 nM Analyte Bound (RU)” value came out at 0 RU and the binding result is on record as “no binding (tested: 100 nM)”.
In the case of B12, the “100 nM Analyte Bound (RU)” value is 1 RU and the binding result is on record as “no binding (tested: 100 nM)”.
As to B13, the “100 nM Analyte Bound (RU)” value came out at 0 RU and the binding result is recorded as “no binding (tested: 100 nM)”.
Taken in the same sequence, the figures for B14 were 0 RU and “no binding (tested: 100 nM)”.
The corresponding values for B15 are 0 RU and “no binding (tested: 100 nM)”.
The corresponding values for B16 are 0 RU and “no binding (tested: 100 nM)”.
